Data: patent publication US20210238276A1 (INTEGRAL MOLECULAR, published 2021)
Where a chain is given by its changes, count along the chain named. Values belong to the molecule of their own block, whether it stands above or below them.

How the values were obtained:
Assay in all cases: flow cytometry, alanine-scan library in HEK-293T
hsGLUT4 E315A = molecular target: T1, hsGLUT4 E315A (human, UniProt P14672 1-509)
T1 sequence: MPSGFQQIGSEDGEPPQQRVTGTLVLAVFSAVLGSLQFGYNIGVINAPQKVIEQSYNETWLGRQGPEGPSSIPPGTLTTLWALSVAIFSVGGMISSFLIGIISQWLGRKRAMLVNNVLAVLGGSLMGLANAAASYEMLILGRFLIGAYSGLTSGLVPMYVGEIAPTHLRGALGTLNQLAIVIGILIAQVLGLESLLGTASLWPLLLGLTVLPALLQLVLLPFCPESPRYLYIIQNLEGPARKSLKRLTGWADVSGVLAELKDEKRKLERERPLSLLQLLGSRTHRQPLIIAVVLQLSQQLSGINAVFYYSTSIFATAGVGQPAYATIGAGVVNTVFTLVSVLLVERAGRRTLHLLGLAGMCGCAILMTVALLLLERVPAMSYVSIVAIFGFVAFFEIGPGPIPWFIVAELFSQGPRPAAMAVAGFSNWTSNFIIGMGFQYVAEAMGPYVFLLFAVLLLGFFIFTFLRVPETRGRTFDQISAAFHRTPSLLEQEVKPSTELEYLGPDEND
Protocol: (§1) Because of the state-dependence of the isolated MAbs, we next wished to understand the mechanism by which each MAb could recognize GLUT4 in its different conformations. The residues required for binding of each MAb were determined using shotgun mutagenesis comprehensive alanine scanning (Davidson E & Doranz B J (2014) A High-Throughput Shotgun Mutagenesis Approach to Mapping B-cell Antibody Epitopes. Immunology, which is hereby incorporated by reference in its entirety). All residues of hsGLUT4 were individually mutated to alanine, with existing alanines changed to serines. Mutations were obtained for 508 of the 509 residues of GLUT4 (excluding the initiating methionine). The entire mutation library was transfected into human HEK-293T cells in a 384-well array format (one clone per well) and assessed for immunoreactivity using high-throughput flow cytometry.
(§2) HEK-293T cells were transfected by CaPO₄ with plasmids in 6-well culture plates (Falcon) at 750,000 cells/well. At 48 hours post transfection, cells were stained with anti-V5 and anti-GLUT4 MAbs (purified scFv, 2 μg/ml) followed by biotinylated goat anti-mouse or human antibody (1:500) and streptavidin-PerCP (1:500). Fluorescence was detected using an Intellicyt high-throughput flow cytometer (HTFC; Intellicyt, Albuquerque, N. Mex.). For cell permeabilization, cells were treated with saponin at 0.1% in PBS for 20 minutes. To discriminate intact (live) and permeabilized (dead) cells without the use of detergent, propidium iodide (PI) was added to HEK-293T cells at 1 ug/ml just prior to flow cytometry. Where indicated, cytochalasin B (Sigma) was used at a final concentration of 10 uM and phloretin (Sigma) was used at a final concentration of 100 uM, each added in 10% NGS for 30 minutes prior to antibody staining as well as included with the primary antibody.

hsGLUT4 G348A = molecular target: T2, hsGLUT4 G348A (human, UniProt P14672 1-509)
T2 sequence: T1 sequence with A315E, G348A
Protocol: as §1, §2

hsGLUT4 D506A = molecular target: T3, hsGLUT4 D506A (human, UniProt P14672 1-509)
T3 sequence: T1 sequence with A315E, D506A
Protocol: as §1, §2

hsGLUT4 E162A = molecular target: T4, hsGLUT4 E162A (human, UniProt P14672 1-509)
T4 sequence: T1 sequence with E162A, A315E
Protocol: as §1, §2

B1: AB108 (Fc fusion)
scFv: ALTQPSSVSANLGGTVKITCSGSSGSYGWYQQKAPGSAPVTLIYRNDKRPSDIPSRFSGSESGSTGTLTITGVQAEDEAVYFCGGYDSSAGYAAFGAGTTLTVLGQSSRSSGGGGSSGGGGSAVTLDESGGGLQTPGGALSLVCKASGFTFSSHGMGWVRQAPGKGLEWVGSISTGRYTFYAPAVKGRATISRDNGQSTLRLQLNNLRAEDTGTYYCTKCAGLNGCGGGEIDAWGHGTEVIVSS
notes: Bivalent scFv-Fc; also called MAb AB108; not shown: Fc fragment of human IgG1, cloned in frame with the scFv
% of binding to wild type GLUT4 (hsGLUT4 E315A): 96% | % of binding to wild type GLUT4 (hsGLUT4 G348A): 94% | % of binding to wild type GLUT4 (hsGLUT4 D506A): 105% | % of binding to wild type GLUT4 (hsGLUT4 E162A): 41%

B2: AB111 (Fc fusion)
scFv: ALTQPSSVSANPGETVKITCSGSGSWYGWFQQKSPGSAPVTVIYSNDKRPSDIPSRFSGSKSGSTSTLTITGVQVEDEAVYYCGNWDIFGAGTTLTVLGQSSRSSGGGGSSGGGGSAVTLDESGGGLQTPGGALSLVCKASGFTFSSHGMGWVRQAPGKGLEWVASISTGRYTFYAPAVKGRATISRDNGQSTVRLQLNNLRAEDTATYYCTKCAGLNGCGGGEIDAWGHGTEVIVSS
notes: Bivalent scFv-Fc; also called MAb AB111; not shown: Fc fragment of human IgG1, cloned in frame with the scFv
% of binding to wild type GLUT4 (hsGLUT4 E315A): 164% | % of binding to wild type GLUT4 (hsGLUT4 G348A): 161% | % of binding to wild type GLUT4 (hsGLUT4 D506A): 158% | % of binding to wild type GLUT4 (hsGLUT4 E162A): 72%

Further lines, results first:

% of binding to wild type GLUT4 (hsGLUT4 E315A): 93% | % of binding to wild type GLUT4 (hsGLUT4 G348A): 109% | % of binding to wild type GLUT4 (hsGLUT4 D506A): 29% | % of binding to wild type GLUT4 (hsGLUT4 E162A): 87%
Molecule: 1F8 (antibody)

% of binding to wild type GLUT4 (hsGLUT4 E315A): 130% | % of binding to wild type GLUT4 (hsGLUT4 G348A): 101% | % of binding to wild type GLUT4 (hsGLUT4 D506A): 34% | % of binding to wild type GLUT4 (hsGLUT4 E162A): 83%
B3: AB101 (scFv)
scFv: ALTQPSSVSANPGETVKITCSGSSNSYGWYQQKSPGSAPVTVIYYNDKRPSDIPSRFSGSKSDSTHTLTITGVRAEDEAVYFCGSYDSTYVGIFGAGTTLTVLGQSSRSSGGGGSSGGGGSAVTLDESGGGLQTPGGTLSLVCKASGFTFSSNAMGWVRQAPGKGLEWVAGISSDGRYTKYGSAVKGRATISRDNGQSTVRLQLNNLRAEDTGTYFCAKAFGNNYRRIYAGQIDAWGHGTEVIVSS
notes: Chicken-derived clone used as a control; the four lead clones were tested as scFv-human IgG1 Fc; also called MAb AB101
